Results reported in the DeepSol protein solubility set.

Assay: soluble on expression in E. coli; label from the status in PepcDB or PDB records

Sequence | soluble on expression in E. coli
MSLTTIKEIAQKSGYSPATVSRLLNNDPNLSITADTKNKILEIANKLGYWKDHQEKEIKPTIALLYRTNHKEQLQDEYFTSLKQALVETVKQKSMKMKTFYNVKDLIENASLFQGFIGVGAAPIENAELLELHKVLPNGVFVDTNPAPELFDSIRPNLSLTVKNAIDLFIKNDCKTIGFIGGVGPKHDHIQENDPRAVAFAEYMKVRNKDTNYMFVSGPFSVENGYELGKEVVKECEDNLPDAFLIASDTLSVGVLQAFNEENVNVPKDTAILSINNSNVVKYVSPPLSSYNINQQEMIDLALTMLTNLIIQPDRAHIDVNMNTDLVVRKSFVPKGEGHHHHHH | soluble
MSLTTYEMARILEQLDESPEKVMYGKLLNELGNQSSERIRSAAKQVPLTVLRDLVYQFQQVIESRKGEQVETMAKELAKQGISAEELLNYLQKR | not soluble
MSLVDLVTEAKSSGEGVTSPYSRTEHCENIHEYRCDTRVGVIGIDVSKEHLVTSKGRVRKFTNNEKGYEEILTMKPNIIVIEPTGVYSTRPCQYFKERGVKVLLVSLAMERKGRKGKENRFLRRRKTEGHHHHHH | not soluble
MSLVKTRILIISDTHGSKPKPKSDNSPSTEDELNQEDVTKVITGWRDPLPEADVVIHCGDLTKRTTIPEFEQTFSVLRSIKAPLKLAIAGNHDTALDEEHWVNKYGGSKETIDKVKKIVREAETDGVKYLPEGVHEFTLANGALLKVYASPWTPAYGGWAFQYKNGHDFNIPPGMDVAVTHGPPRGILDFAGRAGTHAGCPQLLAAVARAKPKIHCFGHIHEAWGMHHVTWDGDEIDLARSQYRGLKGLRPNRVTQGKETARMTREKLIEMSKQRAVRLDLTQGINRSIAGKQTLFVNAAIMSIRYRPVQLPWIIDVDLKAREGHHHHHH | soluble
MSLVKYGVVGAGYFGAELARYMQKNDGAEITLLYDPDNAEAIAEELGAKVASSLDELVSSDEVDCVIVATPNNLHKEPVIKAAQHGKNVFCEKPIALSYQDCREMVDACKENNVTFMAGHIMNFFNGVHHAKELINQGVIGDVLYCHTARNGWEEQQPSVSWKKIREKSGGHLYHHIHELDCVQFLMGGMPETVTMTGGNVAHEGEHFGDEDDMIFVNMEFSNKRFALLEWGSAYRWGEHYVLIQGSKGAIRLDLFNCKGTLKLDGQESYFLIHESQEEDDDRTRIYHSTEMDGAIAYGKPGKRTPLWLSSVIDKEMRYLHEIMQGAPVSEEFAKLLTGEAALEAIATADACTQSMFEDRKVKLSEIVKEGHHHHHH | soluble
MSLVPRIAVLGCGHWGGNHIRTLQSLRALAAVSDVDSDRAASFASLYGVDAVAPDDLFTRRDIDALVLALPPQFHTENVLRAVKNGKDVLVEKPIALDVVDAECQVQAAREYGRILMVGHILRFHPAFEKISELVENGELGDVCYIYSHRLGFGKFHTQSDALWDLAPHDLSMILALTGCEPSEVRGEGAAVIDQCSDFAHIHMAFPNGIRSHLFASRLSPYRERRLMVVGTKAMLVFDDMEPWSRKVAFHPFAVWKENQEWAFSTDELSYINIYEDLPLTCELKHFLHCIETRQSPRTNGDDALAILRILTAAGVNYQKEGHHHHHH | soluble
MSLVSLPGLPAMISEISKRNNLPTTAVEEALREALLKGYERFRRSQLMGHQFPEEYFNNFEVELDTEEEGFRVLSTKRIVEEVENSDQQISLKEVLEVAEEAQLGDEVVLDVTPEQKDFGRMAAIQTKQVLLQKLRDQQRKIIQEEFQDLEGTVLNARALRFERQSIIVAVQSSFGQPEVEAELPKREQLPNDNYRANSTFRVYLKRVREGSQRGPQLVVSRAAAGLVVDLFSVEVPEIEEEVVRIVAVAREAKPPSPSVGPRTKIAVDTLERDVDPVGACIGARGSRIHAVVNELRGEKIDVIRWSPDPATYIAQALSPARVDQVYLIHAEERHALVIVAEDQLSLAIGKEGQNVRLAARLTGWKIDIKDPETYARDKEAIEQSILERAAASAQARAEREAAEQEAQAKLEAEMAALEAEEAEELEETPEAIAEVEEEVEEWDQDQGPELGEEEELSLEHHHHHH | soluble
MSLVYTEVPKSVATFMETITEKCGEAHQDWAKNFQAAFANTLLTTVKRQEDGTTFLLTGDIPAMWLRDSTAQVRPYLVIAKEDEDLAQMIAGLVKRQFRYICIDPYANAFNETDNHAGHQTDKTEMNGWIWERKYEIDSLCYPVQLAYLLYKNTGMTEQFNSDFVEGVKKILNVFTTEQDHAQSPYLFERDTWRQEDTLVEAGKGTPVGKTGMTWSGFRPSDDACQYGYLVPSNMFAVVILGYIQEIFSDVLEDATIGAIAKKLQEEIEEGIQTFGRTKNQNNETIYAYEVDGLGNASVMDDSNVPNLVAAPYLGYCSTEDEQYLTTRQTLLSKENPYFYEGKYAKGIGSSHTPENYVWPIALAMEGMTTKDKAEKERILDLLVATDAGTHLMHEGFDVDNPENYTREWFSWANMMFCELVMDYFDIRVEKEGGSHHHHHH | soluble
MSLWMYIHKIMKLSYKRVILTRELEDIKKDKPLFEREGFKVLELPLIQTKVLEFNLPDEEFDYIVFQSKKAVKIFLGKVNLKGNKKIVAVGKKTAEELEKLGYKADFIPENESAKGLIELFKRLPKGKVLIPRSKIGRTELIKFLKETSFEVFALDVYTTEYVFYTREELLEKLNKGDFIIFYSPSAVKAFFANLQMHKIPKDSLSLKFVAIGKTTKEELQKHSVKNVITSERPSTEDIVKKLKELARDLQKEGHHHHHH | soluble
MSLYLMPKQDEIALLKQEEETVKATLRIKANKVAVLPQIQAQLDELKERYDFLLRQLPVQKELASMLASVNQLGLDSSLTFTRIDWGERESQEFLYRLPLNIELTGSYHDIGDFSQAIAKLPRIINFDDVDWQRVSQESSTLHFRVRAYTYQFKQEVDDEKEGHHHHHH | not soluble
MSLYRDSKRKIIRDLQKQDIQYVEYGDTRTLIIPTDKYFMFSSPRLNEICYPGLNNVIRLLNFYPQSTIYVAGFTDNVGSRSHKRKLSQAQAETMMTFLWANGIAAKRLKAEGYGDKNAISDNAIIHGSAQNRRIEIQWFTSPAQPPQPQMAYVKEGHHHHHH | soluble
MSLYRIDFNKLRFLICDDNPHMRRILRTLLHSFGTREVYEAEDGATALEMYSHYSPDILITDWEMPIFDGLELAQMIRQPEAKGNPYAPIIMLTAHSEKRRVTLARDAGVTEFLAKPISSKGLYQRILNVVASPREGHHHHHH | not soluble
MSLYTFKELKRATKQDTVSLPKLKVALLGDTATQLLATAIKGEGILRNYNIELWEAEYNQVERQIMDPTSDYYQFEPDYTIIFHSTHKLLEKHSLVNSDLQNKLADDRLDFVRLLCEQGIGRVIYYNYPEIEDTIWGSYATKVQSSFTYQLTKLNYELMNISQAYPNFFICNLAGISAKYGRNFMFDSSVYVNTEIILSLDALPIISSRTIDIIAAIQGKFKKCLILDLDNTIWGGVVGDDGWENIQVGHGLGIGKAFTEFQEWVKKLKNRGIIIAVCSKNNEGKAKEPFERNPEMVLKLDDIAVFVANWENKADNIRTIQRTLNIGFDSMVFLDDNPFERNMVREHVPGVTVPELPEDPGDYLEYLYTLNLFETASFSEDDKDRTKQYQIEAKRVSLQQSFTNEAEFLKSLDMVSEVKGFDKFNTPRVAQLSQRSNQFNLRTVRYTEAEIAAIESDLHYATFSFTLADRFGDNGLICVIILEKQDTETLFINTWFMSCRVLKRGMENFTLNTLVDYARSNGFKRFIGEYLPSAKNQMVEEHYPHLGFSKMEGGDNAARYVLDVETYEEKECYITKKEGHHHHHH | soluble
MSLYVSKLFTSQQWRELKLISYVTENADAIGVKDKELSKALNISMLTLQTCLTNMQFMKEVGGITYKNGYITIWYHQHCGLQEVYQKALRHSQSFKLLETLFFRDFNSLEELAEELFVSLSTLKRLIKKTNAYLMHTFGITILTSPVQVSGDEHQIRLFYLKYFSEAYKISEWPFGEILNLKNCERLLSLMIKEVDVRVNFTLFQHLKILSSVNLIRYYKGHSAVYDNKKTSQRFSQLIQSSLEFQDLSRLFHLKFGLYLDETTIAEMFSNHVNDQLEIGYAFDSIKQDSPTGCRKVTNWVHLLDELEIRLNLSVTNKYEVAVILHNTTVLKEEDITANYLFFDYKKSYLNFYKQEHPHLYKAFVAGVEKLMRSEKEPISTELTNQLIYAFFITWENSFLKVNQKDEKIRLLVIERSFNSVGNFLKKYVGEFFSITNFNELDALTIDLEEIEKQYDVIVTDVMVGKSEELEIFFFHKMIPEAIIDKLNAFLTSALQQEGHHHHHH | soluble
MSMLLGDHPELRSRAREIASLAARVVEQVNSMPAGEQKRLLSEQYPELARFEEQREKGDKGLPPLPGAVEGRVKLRFAPNPDFVIHMGNARPAIVNHEYARMYKGRMVLRFEDTDPRTKTPLREAYDLIRQDLKWLGVSWDEEYIQSLRMEVFYSVARRAIERGCAYVDNCGREGKELLSRGEYCPTRDLGPEDNLELFEKMLEGEFYEGEAVVRMKTDPRHPNPSLRDWVAMRIIDTEKHPHPLVGSRYLVWPTYNFAVSVDDHMMEITHVLRGKEHQLNTEKQLAVYRCMGWRPPYFIHFGRLKLEGFILSKSKIRKLLEERPGEFMGYDDPRFGTIAGLRRRGVLAEAIRQIILEVGVKPTDATISWANLAAANRKLLDERADRIMYVEDPVEMEVELAQVECRAAEIPFHPSRPQRKRRITLCTGDKVLLTREDAVEGRQLRLMGLSNFTVSQGILREVDPSLEYARRMKLPIVQWVKKGGEASVEVLEPVELELRRHQGYAEDAIRGYGVDSRLQFVRYGFVRVDSVEDGVYRVIYTHK | soluble
MSMMDKTVLYFGLVEISFDVPDFIFQKIKEQNNKIRYYSKSINILGSVKFINSNQQFIEYDGNGNILVYGRLKYFKEGISLYYIGEYLAECLLIEHSDTLLIHAAAVYNPLSGHSILLLGDKGAGKTTVAIRLCIEHGYHLIGNDQVIFGSNSGILLTYAGTSFFKIRRTAVLSDNLLFKLFSKFFNRSLQFNKASWDDKISIFPKELGIRTCNFSTEISKIYYIKTDKKEKQIYHSIWSDSLASLYLNELLGRHISGQVACFQSDNGKYFSTMPLINYEKNNRVREQIVKGIFAKQKLFKITAATPAKIAEAIIENVKKNS | not soluble
MSMPATSTKTTKLATSLIDEYALLGWRAMLTEVNLSPKPGLVDRINCGAHKDMALEDFHRSALAIQGWLPRFIEFGACSAEMAPEAVLHGLRPIGMACEGDMFRATAGVNTHKGSIFSLGLLCAAIGRLLQLNQPVTPTTVCSTAASFCRGLTDRELRTNNSQLTAGQRLYQQLGLTGARGEAEAGYPLVINHALPHYLTLLDQGLDPELALLDTLLLLMAINGDTNVASRGGEGGLRWLQREAQTLLQKGGIRTPADLDYLRQFDRECIERNLSPGGSADLLILTWFLAQI | not soluble
MSNAYEEYMRQMVIPMRQELVRSGFEELTTEEAVTEFMENTSGTTLVVVNSVCGCAAGLARPSAGQAVVRAEKQPDHLVTVFAGQDKDATAKMREYFGEIPPSSPSMALLKGKEVVHFIHRHEIEGATMDEIITNLEQAFEKNC | soluble
MSNDFTQAQAPPWRYGFLNLMRRVDVQLCTVPAGNTWQPRMEKFRLGQTPALTFAPREIASVGWQEGRLHISLYSLVLWGPNGPLPLHYTELARNRTESRR | not soluble
MSNGRAVNGFLLDITGVLYNSIYKSDGVAVPKSAEAVNFLYQHSKVKFLSNAKGNSNRNVARRLQRLGINVREEDVITPAPVVAQYCRENKLRPHLFVRDDVLEYFDGIDTSSPNCVVMGEVEEGFSFDRINRAFRILIDMPKPLLITMGNGKFFQRVDGPCIDVGAFAAALKFSTNCEVLNIGKPSRFYFEQGMNALGMKPEEIVMVGDDLMSDVGGAQACGMRGVQVRTGKWRPDFEKMPVTPDLTADCLYDAVKLIADNGFRL | not soluble
